# Experimental data from ChEMBL document CHEMBL2074447, “Transport of monoglucuronosyl and bisglucuronosyl bilirubin by recombinant human and rat multidrug resistance protein 2” (Hepatology, 1999).
# B1: ATP-binding cassette sub-family C member 2 (Rattus norvegicus) (protein)
# chain: MDKFCNSTFWDLSLLESPEADLPLCFEQTVLVWIPLGFLWLLAPWQLYSVYRSRTKRSSITKFYLAKQVFVVFLLILAAIDLSLALTEDTGQATVPPVRYTNPILYLCTWLLVLAVQHSRQWCVRKNSWFLSLFWILSVLCGVFQFQTLIRALLKDSKSNMAYSYLFFVSYGFQIVLLILTAFSGPSDSTQTPSVTASFLSSITFSWYDRTVLKGYKHPLTLEDVWDIDEGFKTRSVTSKFEAAMTKDLQKARQAFQRRLQKSQRKPEATLHGLNKKQSQSQDVLVLEEAKKKSEKTTKDYPKSWLIKSLFKTFHVVILKSFILKLIHDLLVFLNPQLLKLLIGFVKSSNSYVWFGYICAILMFAVTLIQSFCLQSYFQHCFVLGMCVRTTVMSSIYKKALTLSNLARKQYTIGETVNLMSVDSQKLMDATNYMQLVWSSVIQITLSIFFLWRELGPSILAGVGVMVLLIPVNGVLATKIRNIQVQNMKNKDKRLKIMNEILSGIKILKYFAWEPSFQEQVQGIRKKELKNLLRFGQLQSLLIFILQITPILVSVVTFSVYVLVDSANVLNAEKAFTSITLFNILRFPLSMLPMVTSSILQASVSVDRLERYLGGDDLDTSAIRRVSNFDKAVKFSEASFTWDPDLEATIQDVNLDIKPGQLVAVVGTVGSGKSSLVSAMLGEMENVHGHITIQGSTAYVPQQSWIQNGTIKDNILFGSEYNEKKYQQVLKACALLPDLEILPGGDMAEIGEKGINLSGGQKQRVSLARAAYQDADIYILDDPLSAVDAHVGKHIFNKVVGPNGLLAGKTRIFVTHGIHFLPQVDEIVVLGKGTILEKGSYRDLLDKKGVFARNWKTFMKHSGPEGEATVNNDSEAEDDDDGLIPTMEEIPEDAASLAMRRENSLRRTLSRSSRSSSRRGKSLKNSLKIKNVNVLKEKEKEVEGQKLIKKEFVETGKVKFSIYLKYLQAVGWWSILFIILFYGLNNVAFIGSNLWLSAWTSDSDNLNGTNNSSSHRDMRIGVFGALGLAQGICLLISTLWSIYACRNASKALHGQLLTNILRAPMRFFDTTPTGRIVNRFSGDISTVDDLLPQTLRSWMMCFFGIAGTLVMICMATPVFAIIIIPLSILYISVQVFYVATSRQLRRLDSVTKSPIYSHFSETVTGLPIIRAFEHQQRFLAWNEKQIDINQKCVFSWITSNRWLAIRLELVGNLVVFCSALLLVIYRKTLTGDVVGFVLSNALNITQTLNWLVRMTSEAETNIVAVERISEYINVENEAPWVTDKRPPADWPRHGEIQFNNYQVRYRPELDLVLKGITCNIKSGEKVGVVGRTGAGKSSLTNCLFRILESAGGQIIIDGIDVASIGLHDLRERLTIIPQDPILFSGSLRMNLDPFNKYSDEEVWRALELAHLRSFVSGLQLGLLSEVTEGGDNLSIGQRQLLCLGRAVLRKSKILVLDEATAAVDLETDSLIQTTIRKEFSQCTVITIAHRLHTIMDSDKIMVLDNGKIVEYGSPEELLSNRGSFYLMAKEAGIENVNHTEL
# B2: ATP-binding cassette sub-family C member 2 (Homo sapiens) (protein)
# chain: MLEKFCNSTFWNSSFLDSPEADLPLCFEQTVLVWIPLGYLWLLAPWQLLHVYKSRTKRSSTTKLYLAKQVFVGFLLILAAIELALVLTEDSGQATVPAVRYTNPSLYLGTWLLVLLIQYSRQWCVQKNSWFLSLFWILSILCGTFQFQTLIRTLLQGDNSNLAYSCLFFISYGFQILILIFSAFSENNESSNNPSSIASFLSSITYSWYDSIILKGYKRPLTLEDVWEVDEEMKTKTLVSKFETHMKRELQKARRALQRRQEKSSQQNSGARLPGLNKNQSQSQDALVLEDVEKKKKKSGTKKDVPKSWLMKALFKTFYMVLLKSFLLKLVNDIFTFVSPQLLKLLISFASDRDTYLWIGYLCAILLFTAALIQSFCLQCYFQLCFKLGVKVRTAIMASVYKKALTLSNLARKEYTVGETVNLMSVDAQKLMDVTNFMHMLWSSVLQIVLSIFFLWRELGPSVLAGVGVMVLVIPINAILSTKSKTIQVKNMKNKDKRLKIMNEILSGIKILKYFAWEPSFRDQVQNLRKKELKNLLAFSQLQCVVIFVFQLTPVLVSVVTFSVYVLVDSNNILDAQKAFTSITLFNILRFPLSMLPMMISSMLQASVSTERLEKYLGGDDLDTSAIRHDCNFDKAMQFSEASFTWEHDSEATVRDVNLDIMAGQLVAVIGPVGSGKSSLISAMLGEMENVHGHITIKGTTAYVPQQSWIQNGTIKDNILFGTEFNEKRYQQVLEACALLPDLEMLPGGDLAEIGEKGINLSGGQKQRISLARATYQNLDIYLLDDPLSAVDAHVGKHIFNKVLGPNGLLKGKTRLLVTHSMHFLPQVDEIVVLGNGTIVEKGSYSALLAKKGEFAKNLKTFLRHTGPEEEATVHDGSEEEDDDYGLISSVEEIPEDAASITMRRENSFRRTLSRSSRSNGRHLKSLRNSLKTRNVNSLKEDEELVKGQKLIKKEFIETGKVKFSIYLEYLQAIGLFSIFFIILAFVMNSVAFIGSNLWLSAWTSDSKIFNSTDYPASQRDMRVGVYGALGLAQGIFVFIAHFWSAFGFVHASNILHKQLLNNILRAPMRFFDTTPTGRIVNRFAGDISTVDDTLPQSLRSWITCFLGIISTLVMICMATPVFTIIVIPLGIIYVSVQMFYVSTSRQLRRLDSVTRSPIYSHFSETVSGLPVIRAFEHQQRFLKHNEVRIDTNQKCVFSWITSNRWLAIRLELVGNLTVFFSALMMVIYRDTLSGDTVGFVLSNALNITQTLNWLVRMTSEIETNIVAVERITEYTKVENEAPWVTDKRPPPDWPSKGKIQFNNYQVRYRPELDLVLRGITCDIGSMEKIGVVGRTGAGKSSLTNCLFRILEAAGGQIIIDGVDIASIGLHDLREKLTIIPQDPILFSGSLRMNLDPFNNYSDEEIWKALELAHLKSFVASLQLGLSHEVTEAGGNLSIGQRQLLCLGRALLRKSKILVLDEATAAVDLETDNLIQTTIQNEFAHCTVITIAHRLHTIMDSDKVMVLDNGKIIECGSPEELLQIPGPFYFMAKEAGIENVNSTKF
# Columns and labels:
# Format in all cases: functional, cell membranes, HEK293, Membrane vesicle
# [1] = substrate: C=CC1=C(C)/C(=C/c2[nH]c(Cc3[nH]c(/C=C4\NC(=O)C(C)=C4C=C)c(C)c3CCC(=O)O[C@@H]3OC(C(=O)O)[C@@H](O)C(O)C3O)c(CCC(=O)O)c2C)NC1=O; test: (§1) TP_TRANSPORTER: uptake in membrane vesicles from Mrp2-expressing HEK cells
# [2] = substrate: C=CC1=C(C)/C(=C/c2[nH]c(Cc3[nH]c(/C=C4\NC(=O)C(C)=C4C=C)c(C)c3CCC(=O)O[C@@H]3O[C@@H](C(=O)O)[C@H](O)[C@@H](O)[C@@H]3O)c(CCC(=O)O[C@@H]3O[C@H](C(=O)O)[C@H](O)[C@H](O)[C@@H]3O)c2C)NC1=O; test: as §1
# [3] = substrate: C=CC1=C(C)/C(=C/c2[nH]c(Cc3[nH]c(/C=C4\NC(=O)C(C)=C4C=C)c(C)c3CCC(=O)O[C@@H]3OC(C(=O)O)[C@@H](O)C(O)C3O)c(CCC(=O)O)c2C)NC1=O; test: (§2) TP_TRANSPORTER: uptake in membrane vesicles from MRP2-expressing HEK cells
# [4] = substrate: C=CC1=C(C)/C(=C/c2[nH]c(Cc3[nH]c(/C=C4\NC(=O)C(C)=C4C=C)c(C)c3CCC(=O)O[C@@H]3O[C@@H](C(=O)O)[C@H](O)[C@@H](O)[C@@H]3O)c(CCC(=O)O[C@@H]3O[C@H](C(=O)O)[C@H](O)[C@H](O)[C@@H]3O)c2C)NC1=O; test: as §2
Protein,Km [1] [µM],Km [2] [µM],Km [3] [µM],Km [4] [µM]
B1,0.8,0.5,–,–
B2,–,–,0.7,0.9
